From PMC3696401

Target: IRBIT (UniProt Q80SW1)
Experiment: reciprocal co-IP from co-transfected cells
Conditions: reference: wild-type IP3R1; sites S1589,S1755

Chain of UniProt Q80SW1 (Q80SW1 whole entry, looked up): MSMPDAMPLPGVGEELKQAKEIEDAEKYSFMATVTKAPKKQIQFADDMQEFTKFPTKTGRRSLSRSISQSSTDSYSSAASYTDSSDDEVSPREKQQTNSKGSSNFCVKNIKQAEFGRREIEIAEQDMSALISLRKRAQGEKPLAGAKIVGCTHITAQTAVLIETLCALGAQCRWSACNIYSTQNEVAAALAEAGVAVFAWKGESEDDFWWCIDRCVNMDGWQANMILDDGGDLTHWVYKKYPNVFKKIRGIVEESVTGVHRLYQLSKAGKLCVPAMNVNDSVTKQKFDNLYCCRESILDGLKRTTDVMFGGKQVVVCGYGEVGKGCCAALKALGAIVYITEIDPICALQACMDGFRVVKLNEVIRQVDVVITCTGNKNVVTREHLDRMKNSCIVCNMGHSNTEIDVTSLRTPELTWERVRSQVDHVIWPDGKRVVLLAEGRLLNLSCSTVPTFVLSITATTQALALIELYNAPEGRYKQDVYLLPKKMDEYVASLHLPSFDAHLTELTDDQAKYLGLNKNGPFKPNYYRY

binding against the reference: stronger
Substance: IP3R1 (from UniProt P29994-3) S1589A/S1755A (AA)
